The values that follow come from patent US7892767B2, “Phosphospecific chemokine receptor antibodies” (Washington University in St. Louis, priority 2005, dated 2011).

The target of the assay is T1, CXCR4 (Homo sapiens, UniProt P61073).
T1 construct: lysates from the glioblastoma cell line LN428, which is known to express high levels of CXCR4; endogenous in cells; host or cells: LN428 GBM cell line
Put plainly: Stimulated CXCR4 phosphorylation in LN428 GBM cells (western blot). In kind it is cell-based. The method, then: Cell Culture, transfections and stimulation of CXCR4 phosphorylation. The U87 glioblastoma multiforme (GBM, grade IV) cell line was obtained from the American Type Culture Collection. The LN428 GBM cell line was a kind gift of Dr Erwin van Meir (Winship Cancer Center, Emory University, Atlanta, Ga.). U87 cells were grown in minimum essential a media supplemented with 10% fetal bovine serum ((FBS), Biomedia, Foster City, Calif.). LN428 cells were grown in DMEM (Fisher, Pittsburgh, Pa.) supplemented with 10% horse serum (Sigma). All cells were grown in the presence of penicillin-streptomycin. The coding sequence for human CXCR4 was obtained by high fidelity RT-PCR (Superscript III Platinum, Invitrogen), and cloned into the expression vector pMSCVneo (Clontech, Palo Alto, Calif.). Transfections were performed with 0.3 μg of plasmid DNA in 20 μl Lipofectamine (Invitrogen)/35 mm^2 tissue culture dish for 9 hours according to the manufacturer's instructions. Cells recovered in Optimem supplemented with 10% FBS. Transfected and non-transfected cells were placed in serum free media for 24 hours prior to treatment with agents to stimulate CXCR4 phosphorylation. Treatment was usually for 0 or 10 minutes with 1 μg/ml CXCL12 (Peprotech, Rocky Hill N.J.), 4 μM 4-Phorbol 12-myristate 13-acetate (PMA) or 10 nM EGF. In some experiments, CXCL12 was washed away and cells were incubated for an additional 20 minutes in serum free media alone.
Western Blot Analysis. […] Peroxide activity was detected using the enhanced chemiluminescence Supersignal West Dura system (Pierce, Rockford, Ill.). […]
The utility of these antibodies for evaluating the relationship between ligand binding and CXCR4 function is dependent upon their ability to distinguish a ligand activated form of the receptor. […] Serum starved LN428 cells were treated with 1 μg/ml CXCL12 for 0 or 10 minutes and the abundance of phospho-CXCR4 was determined by western blot and immuno-localization in fixed cells. […]
(Immunoblotting shows a protein as a band on a membrane.)

The mark [1] stands for this setting: 1 μg/ml CXCL12, 4 μM PMA or 10 nM EGF.

T1 sequence (P61073 whole entry): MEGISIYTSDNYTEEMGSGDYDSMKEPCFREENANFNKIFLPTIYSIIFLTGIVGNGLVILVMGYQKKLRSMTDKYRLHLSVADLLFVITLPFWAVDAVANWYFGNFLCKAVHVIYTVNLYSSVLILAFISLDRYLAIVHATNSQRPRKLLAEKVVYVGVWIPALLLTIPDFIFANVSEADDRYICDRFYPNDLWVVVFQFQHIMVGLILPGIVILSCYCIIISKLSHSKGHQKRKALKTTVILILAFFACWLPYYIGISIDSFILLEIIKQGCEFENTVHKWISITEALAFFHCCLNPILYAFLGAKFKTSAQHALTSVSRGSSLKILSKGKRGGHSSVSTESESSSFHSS

B1: EGF: growth factor, ligand of the EGF receptor (protein, UniProt P01133 23-1207, looked up)
Pro-epidermal growth factor: PQHWSCPEGTLAGNGNSTCVGPAPFLIFSHGNSIFRIDTEGTNYEQLVVDAGVSVIMDFHYNEKRIYWVDLERQLLQRVFLNGSRQERVCNIEKNVSGMAINWINEEVIWSNQQEGIITVTDMKGNNSHILLSALKYPANVAVDPVERFIFWSSEVAGSLYRADLDGVGVKALLETSEKITAVSLDVLDKRLFWIQYNREGSNSLICSCDYDGGSVHISKHPTQHNLFAMSLFGDRIFYSTWKMKTIWIANKHTGKDMVRINLHSSFVPLGELKVVHPLAQPKAEDDTWEPEQKLCKLRKGNCSSTVCGQDLQSHLCMCAEGYALSRDRKYCEDVNECAFWNHGCTLGCKNTPGSYYCTCPVGFVLLPDGKRCHQLVSCPRNVSECSHDCVLTSEGPLCFCPEGSVLERDGKTCSGCSSPDNGGCSQLCVPLSPVSWECDCFPGYDLQLDEKSCAASGPQPFLLFANSQDIRHMHFDGTDYGTLLSQQMGMVYALDHDPVENKIYFAHTALKWIERANMDGSQRERLIEEGVDVPEGLAVDWIGRRFYWTDRGKSLIGRSDLNGKRSKIITKENISQPRGIAVHPMAKRLFWTDTGINPRIESSSLQGLGRLVIASSDLIWPSGITIDFLTDKLYWCDAKQSVIEMANLDGSKRRRLTQNDVGHPFAVAVFEDYVWFSDWAMPSVMRVNKRTGKDRVRLQGSMLKPSSLVVVHPLAKPGADPCLYQNGGCEHICKKRLGTAWCSCREGFMKASDGKTCLALDGHQLLAGGEVDLKNQVTPLDILSKTRVSEDNITESQHMLVAEIMVSDQDDCAPVGCSMYARCISEGEDATCQCLKGFAGDGKLCSDIDECEMGVPVCPPASSKCINTEGGYVCRCSEGYQGDGIHCLDIDECQLGEHSCGENASCTNTEGGYTCMCAGRLSEPGLICPDSTPPPHLREDDHHYSVRNSDSECPLSHDGYCLHDGVCMYIEALDKYACNCVVGYIGERCQYRDLKWWELRHAGHGQQQKVIVVAVCVVVLVMLLLLSLWGAHYYRTQKLLSKNPKNPYEESSRDVRSRRPADTEDGMSSCPQPWFVVIKEHQDLKNGGQPVAGEDGQAADGSMQPTSWRQEPQLCGMGTEQGCWIPVSSDKGSCPQVMERSFHMPSYGTQTLEGGVEKPHSLLSANPLWQQRALDPPHQMELTQ
modifications: Pro-epidermal growth factor
notes: growth factor, ligand of the EGF receptor
For B1, under setting [1], the P338 phosphorylation stimulated result was “not” and the P339 phosphorylation entry is given as “stimulated”. Also, where the note is “4 μM PMA or 10 nM EGF”, the “P339-CXCR4 immunoreactivity compared with response to CXCL12” value is “greater”.
